Source: patent US20040151715A1 (SCHERING, published 2004)

Columns and labels:
[1] = molecular target: T1, MCF substrate peptide (Ac-LPPVAASSLNRD-NH2)
T1 chain: LPPVAASSLNRD

[2] = molecular target: T2, KL-1 peptide (PPVAASSLRN)
T2 chain: PPVAASSLRN

[3] = molecular target: T3, human ADAM33 pro domain (wild type)
T3 chain: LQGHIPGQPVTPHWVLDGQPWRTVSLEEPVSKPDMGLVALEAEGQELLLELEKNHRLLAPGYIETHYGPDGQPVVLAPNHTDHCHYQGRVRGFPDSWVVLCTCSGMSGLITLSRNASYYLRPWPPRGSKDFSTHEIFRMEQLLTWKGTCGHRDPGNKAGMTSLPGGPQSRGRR

[4] = molecular target: T4, insulin B chain peptide (HLVEALYLVC)
T4 chain: HLVEALYLVC

[5] = molecular target: T5, APP peptide (YEVHHQKLVF)
T5 chain: YEVHHQKLVF

[6] = molecular target: T6, TRANCE peptide (VGSQHIRAEK)
T6 chain: VGSQHIRAEK

[7] = molecular target: T7, human ADAM33 catalytic domain (human, UniProt Q9BZ11 204-409); assay: co-purification during chromatography; heterodimer not disrupted by APMA and/or detergents
T7 construct: Expressed in Drosophila S2 cells as pre/pro/cat with a C-terminal Ser-Gly-His6 tag and processed at RGRR203/EARR; also called CAT domain; protease domain
T7 sequence: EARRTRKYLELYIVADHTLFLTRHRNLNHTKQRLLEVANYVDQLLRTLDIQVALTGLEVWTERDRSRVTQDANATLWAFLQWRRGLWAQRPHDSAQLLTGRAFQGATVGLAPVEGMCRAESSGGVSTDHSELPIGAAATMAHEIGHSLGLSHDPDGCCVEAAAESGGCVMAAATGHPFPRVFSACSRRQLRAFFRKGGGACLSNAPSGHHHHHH

[8] = molecular target: T7, human ADAM33 catalytic domain; assay: HPLC assay of KL-1 peptide (100 µM) cleavage by ADAM33cat (80 nM), TIMP pre-incubated 1 h at RT; competitive inhibition fit
Description: (§1) The inhibition dissociation constants (Kᵢ) for inhibitors were determined as follows: an HPLC assay was performed in the presence or absence of inhibitors for 2 h at RT using ADAM33cat (80 nM) and KL-1 peptide substrate (100 μM). For testing tissue inhibitor of metalloproteinases (TIMPs), ADAM33 and human TIMPs were pre-incubated for 1 h at RT. Serial dilutions of TIMPs or synthetic inhibitors were tested starting at 4 μM (TIMP-2, -3, 4), 2 μM (TIMP-1, IK682), 20 μM (Marimastat), or 200 μM (Immunex compound 1: N-{DL-[2-(hydroxyamino-carbonyl)methyl]4-methylpentanoyl}-L-3-(tertbutyl)glycyl-L-alanine,2-aminoethylamide). Initial velocities were calculated by dividing cleaved product over reaction time. The initial velocities were plotted as a function of inhibitor concentration. For tight binding inhibitors (IK682, TIMP-3), the apparent inhibitor dissociation constants (Kᵢ app values) were calculated by fitting the curve to the following modified Morrison's equation: […]
(§2) The cleavage of the KL-1 peptide by ADAM33 was used to evaluate the effect of different classes of protease inhibitors. Inhibition constants of several hydroxamate compounds, known to inhibit either ADAM17 [IK682, and the Immunex compound 1] or MMPs [Marimastat], were determined. […] Human TIMP-1, -2, -3 and -4, endogenous inhibitors of MMPs and ADAMs, were tested for inhibition of ADAM33 activity.

[9] = molecular target: T7, human ADAM33 catalytic domain; assay: HPLC assay of KL-1 peptide (100 µM) cleavage by ADAM33cat (80 nM), TIMP pre-incubated 1 h at RT; Morrison tight-binding fit (Ki app)
Description: as §1, §2

B1: human ADAM33 catalytic domain (protein)
chain: EARRTRKYLELYIVADHTLFLTRHRNLNHTKQRLLEVANYVDQLLRTLDIQVALTGLEVWTERDRSRVTQDANATLWAFLQWRRGLWAQRPHDSAQLLTGRAFQGATVGLAPVEGMCRAESSGGVSTDHSELPIGAAATMAHEIGHSLGLSHDPDGCCVEAAAESGGCVMAAATGHPFPRVFSACSRRQLRAFFRKGGGACLSNAPSGHHHHHH
Km [1]: suggesting a Km value greater than the highest tested concentration (500 µM) | catalytic efficiency (kcat/Km) [1]: 2.6±0.5)×10^2 M^-1 s^-1 | peptide cleavage (HPLC) [1]: The wild-type ADAM33 cleaved the peptide between the residues corresponding to Ala-190 and Ser-191 | Km [2]: 3.0 ± 0.1 mM | kcat [2]: 0.7 ± 0.1 s⁻¹ | kcat/Km [2]: (2.6±0.5)×10^2 M^-1 s^-1 (n=3) | peptide cleavage (HPLC; site by MALDI-TOF MS) [2]: ADAM33 cleaved the ... KL-1 peptide at A * S | catalytic efficiency of the pro/CAT complex on the MCF peptide, tested at 50 nM-1 µM [3]: comparable to that of the CAT domain | peptide cleavage (HPLC; site by MALDI-TOF MS) [4]: ADAM33 cleaved the ... insulin B chain peptide at A * L | Km [5]: 1.0 ± 0.1 mM | kcat [5]: 0.2 ± 0.1 s⁻¹ | kcat/Km [5]: (1.6±0.3)×10^2 M^-1 s^-1 (n=2) | peptide cleavage (HPLC; site by MALDI-TOF MS) [5]: ADAM33 cleaved the APP peptide at H * Q | peptide cleavage (HPLC; site by MALDI-TOF MS) [6]: ADAM33 cleaved the ... human TRANCE peptide at H * I

B2: human ADAM33 pro domain C131A (other)
chain: LQGHIPGQPVTPHWVLDGQPWRTVSLEEPVSKPDMGLVALEAEGQELLLELEKNHRLLAPGYIETHYGPDGQPVVLAPNHTDHCHYQGRVRGFPDSWVVLATCSGMSGLITLSRNASYYLRPWPPRGSKDFSTHEIFRMEQLLTWKGTCGHRDPGNKAGMTSLPGGPQSRGRR
notes: The whole pro/cat entry is named; The protein was processed at the pro-CAT junction, so only the part before EARR is the pro domain
percent of protease domain associated with the pro domain [7]: > 80%

B3: human ADAM33 pro domain C179A (other)
chain: LQGHIPGQPVTPHWVLDGQPWRTVSLEEPVSKPDMGLVALEAEGQELLLELEKNHRLLAPGYIETHYGPDGQPVVLAPNHTDHCHYQGRVRGFPDSWVVLCTCSGMSGLITLSRNASYYLRPWPPRGSKDFSTHEIFRMEQLLTWKGTAGHRDPGNKAGMTSLPGGPQSRGRR
notes: as for B2
percent of protease domain associated with the pro domain [7]: > 80%

B4: human ADAM33 pro domain C131A/C179A (other)
chain: LQGHIPGQPVTPHWVLDGQPWRTVSLEEPVSKPDMGLVALEAEGQELLLELEKNHRLLAPGYIETHYGPDGQPVVLAPNHTDHCHYQGRVRGFPDSWVVLATCSGMSGLITLSRNASYYLRPWPPRGSKDFSTHEIFRMEQLLTWKGTAGHRDPGNKAGMTSLPGGPQSRGRR
notes: as for B2
percent of protease domain associated with the pro domain [7]: > 80%

B5: single chain zymogen form of ADAM33 (R203T/R207S) (protein)
chain: LQGHIPGQPVTPHWVLDGQPWRTVSLEEPVSKPDMGLVALEAEGQELLLELEKNHRLLAPGYIETHYGPDGQPVVLAPNHTDHCHYQGRVRGFPDSWVVLCTCSGMSGLITLSRNASYYLRPWPPRGSKDFSTHEIFRMEQLLTWKGTCGHRDPGNKAGMTSLPGGPQSRGRTEARSTRKYLELYIVADHTLFLTRHRNLNHTKQRLLEVANYVDQLLRTLDIQVALTGLEVWTERDRSRVTQDANATLWAFLQWRRGLWAQRPHDSAQLLTGRAFQGATVGLAPVEGMCRAESSGGVSTDHSELPIGAAATMAHEIGHSLGLSHDPDGCCVEAAAESGGCVMAAATGHPFPRVFSACSRRQLRAFFRKGGGACLSNAP
catalytic efficiency on the MCF peptide [1]: showed no significant difference to that of the CAT domain

B6: human TIMP-4 (tissue inhibitor of metalloproteinases 4) (other, UniProt Q99727 30-224, looked up)
chain: CSCAPAHPQQHICHSALVIRAKISSEKVVPASADPADTEKMLRYEIKQIKMFKGFEKVKDVQYIYTPFDSSLCGVKLEANSQKQYLLTGQVLSDGKVFIHLCNYIEPWEDLSLVQRESLNHHYHLNCGCQITTCYTVPCTISAPNECLWTDWLLERKLYGYQAQHYVCMKHVDGTCSWYRGHLPLRKEFVDIVQP
Ki [8]: 223 nM

B7: human TIMP-3 (tissue inhibitor of metalloproteinases 3) (other, UniProt P35625 24-211, looked up)
chain: CTCSPSHPQDAFCNSDIVIRAKVVGKKLVKEGPFGTLVYTIKQMKMYRGFTKMPHVQYIHTEASESLCGLKLEVNKYQYLLTGRVYDGKMYTGLCNFVERWDQLTLSQRKGLNYRYHLGCNCKIKSCYYLPCFVTSKNECLWTDMLSNFGYPGYQSKHYACIRQKGGYCSWYRGWAPPDKSIINATDP
Ki [9]: 64 nM
